Laboratory results as given in patent US20030220254A1, “Composition and method for preparation of an oral dual controlled release formulation of a protein and inhibitor” (TEXAS TECH UNIVERSITY SYSTEM, priority 2002, published 2003).
Like-named read-outs stand apart in the source and are kept apart here.

Assays:
[1] = molecular target: T1, α-chymotrypsin (Bos taurus, UniProt P00766); test: α-chymotrypsin mediated degradation of insulin with inhibitors (HPLC); format: biochemical
Method: (§1) Stability studies in the presence of chicken and duck ovomucoid were conducted. […] The degradation profiles were generated in the presence of 0.1 μM α-chymotrypsin and 0.5 μM trypsin over a period of 60 minutes that served as controls. These concentrations were selected based on a reported study (Schilling & Mitra 1991).
(§2) Samples were taken at 0, 5, 15, 30 and 60 minutes and immediately diluted with cold 1% TFA/TRIS to reduce the pH to 2.5. The samples were analyzed at 4° C. by a reverse-phase HPLC method using a Varian Chromatography Workstation. […] Similar studies were performed with aprotinin.
The protocol used was the same as above with minor modifications. […] The degradation profiles were generated in the presence of α-chymotrypsin and DkOVM. The enzyme to inhibitor ratio used was 1:1 with respect to α-chymotrypsin.

[2] = in vitro; conditions: male, Sprague Dawley, rat, pH 7.4
Description: (§3) Male Sprague Dawley rats weighing between 200-300 g were used for the permeability experiments. The intestine was excised and the jejunum was isolated by a reported method (Asada et al. 1995). Briefly, the duodenal and ileal segments were removed from top and bottom (13 cm on either side) and the residual intestine was designated as jejunum. The respective segments were mounted in a Navicyte Side-By-Side diffusion apparatus with accessories such as water circulator, flowmeter and humidifier.
(§4) The segments were mounted without stripping on a preheated acrylic half-cell and the cell assembly was then placed in a heated block after joining the other half-cell. The exposed surface area was 1.78 cm^2 and the reservoir volume was 6 mL. The donor and receiver compartments were immediately filled with pre-warmed oxygenated Krebs bicarbonate buffer adjusted to pH 7.4 with NaOH or HCl. The composition of buffer used is shown in Table 11, which illustrates the composition of stock solutions used for preparation of Krebs Bicarbonate solution. The stock solutions can be made in 100 mL or 1 L volume and stored in a refrigerator for one month. For preparation of working buffer, 50 mL of each stock solution above is added to a 1 L volumetric flask containing 750 mL of water. The pH was adjusted to 7.4 when necessary. […]
(§5) For the marker studies, the concentration of ^14C mannitol in donor compartment was 3.5×10^−5 μM and that of H testosterone was 4×10^−2 μM. The integrity of the tissues was determined by calculating the permeability coefficient (Papp) of mannitol. […] Aliquots of 10 μL were taken from the mucosal side at the beginning and end of the experiment and analyzed by a HPLC method discussed later. […] The radioactive samples were analyzed by using a liquid scintillation counter.
(§6) The results of experiments performed at least in triplicate are presented as mean±SE. Statistical differences between permeability in the presence of DkOVM and CkOVM and the means were determined by one-way analysis of variance (ANOVA). […]

[3] = test system: rat jejunum; test: in vitro
Description: as §3, §4, §5, §6

[4] = molecular target: T2, trypsin (Bos taurus, UniProt P00760); test: trypsin mediated degradation of insulin with inhibitors (HPLC); format: biochemical; conditions: trypsin 0.5 μM
T2 construct: gene PRSS1
T2 sequence (P00760 24-246): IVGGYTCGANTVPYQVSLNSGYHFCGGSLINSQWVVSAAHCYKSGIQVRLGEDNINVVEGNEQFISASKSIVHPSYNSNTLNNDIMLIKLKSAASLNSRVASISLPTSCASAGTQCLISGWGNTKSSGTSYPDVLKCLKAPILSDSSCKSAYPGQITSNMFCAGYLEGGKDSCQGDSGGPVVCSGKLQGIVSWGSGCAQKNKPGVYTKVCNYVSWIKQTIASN
Method: as §1
as §2, with “Workstation. Plots of insulin remaining versus time were generated.” for “Workstation.”

[5] = molecular target: T2, trypsin; test: Stability of sCT in the presence of trypsin and protease inhibitors; format: biochemical
Method: (§7) sCT solutions (50 μM) were incubated at 37° C. in 50 mM Tris buffer containing 0.1 mM calcium chloride (pH 8.0). Degradation profiles generated in the presence of 0.5 μM trypsin and 0.1 μM α-chymotrypsin served as controls. The concentrations were selected on the basis of a reported study (Schilling R. J. and Mitra A. K. 1991). DkOVM and TkOVM were evaluated at different enzyme-to-inhibitor ratios to evaluate their inhibition of sCT degradation. CkOVM and aprotinin were used at 1:1 enzyme-to-inhibitor ratio in order to compare the efficacy of various protease inhibitors used. sCT and enzyme solutions were incubated for 15 min at 37° C. before starting the experiments. Samples were taken after 0, 5, 15, 30 and 60 min and immediately diluted with cold 1% trifluoroacetic acid (TFA) to reduce the pH to 2.5. The samples were analysed at 4° C. by HPLC given below. Plots of sCT remaining against time were generated. […] (amount of sCT (%) remaining after 60 min) were used to compare the efficacy of the ovomucoids. Similar studies were performed with aprotinin. The study was also conducted by incubating 50 μM sCT solutions with 0.5 μM trypsin and 0.1 μM α-chymotrypsin added together and the efficacy of TkOVM was evaluated at various ratios.
(§8) sCT was analyzed by means of our validated HPLC method (Shah R B, et al., 2003). Briefly, a computer controlled Varian Chromatography workstation consisting of the following components was used: Two Dynamax SD-200 pumps, an AI-200A autosampler fitted with a 100 μl injection loop, a Dynamax UV-1 detector and Star 5.3 chromatography software. Room temperature was maintained for the column and chromatographic separations were carried out on a C-18 Vydac 218MS54 column (5 μm, 4.6×250 mm) with a pore size of 300 Å. 50 μl of samples were injected into the column which were analyzed by the reversed phase HPLC method. The mobile phase consisted of 0.05% v/v TFA-Water (A) and 0.05% v/v TFA-Acetonitrile (B). The gradient conditions were 20-35% B for 10 min, 35-37% B from 10th to 20th min and 37-20% B from 20th to 25th min at a flow rate of 1 ml/min. […] Concentrations of sCT were quantified from integrated peak areas and calculated by interpolation from an according standard curve.

[6] = molecular target: T1, α-chymotrypsin; test: Stability of sCT in the presence of α-chymotrypsin and protease inhibitors; format: biochemical
Method: as §7, §8

[7] = test system: apical epithelium; conditions: Stoll et al. 2000; cited from earlier work
[8] = molecular target: T1, α-chymotrypsin; test: Insulin stability in Krebs bicarbonate buffer with α-chymotrypsin and DkOVM over 3 hours; format: biochemical; conditions: absence of DkOVM
Method: The degradation profiles were generated in the presence of 0.5 μM α-chymotrypsin over a period of 3 hours that served as controls. […] Samples were taken up to 180 min and immediately diluted with cold 1% TFA/TRIS to reduce the pH to 2.5. The samples were analyzed by the RP-HPLC method reported earlier.

[9] = test system: rat intestinal segments; test: Insulin transport across rat intestinal segments (side-by-side diffusion apparatus)
Description: as §3
The segments were mounted without stripping on a preheated acrylic half-cell and the cell assembly was then placed in a heated block after joining the other half-cell. The exposed surface area was 1.78 cm^2 and the reservoir volume was 6 mL. The donor and receiver compartments were immediately filled with pre-warmed oxygenated Krebs bicarbonate buffer adjusted to pH 7.4 with NaOH or HCl. The composition of buffer used is shown in Table 11, which illustrates the composition of stock solutions used for preparation of Krebs Bicarbonate solution. The stock solutions can be made in 100 mL or 1 L volume and stored in a refrigerator for one month. For preparation of working buffer, 50 mL of each stock solution above is added to a 1 L volumetric flask containing 750 mL of water. The pH was adjusted to 7.4 when necessary.
The mucosal buffer consisted of 40 mM mannitol and the serosal buffer consisted of 40 mM glucose. […] Mannitol equalizes the osmotic load between the mucosal and […] buffers and glucose helps to maintain tissue viability. The buffer was circulated by a gas lift (95%O2/5%CO2). The flow rate of gas lift was adjusted to 10±2 mL/min using a flow meter. The tissues were equilibrated for 10 min before the drug solution was added.
For the marker studies, the concentration of ^14C mannitol in donor compartment was 3.5×10^−5 μM and that of H testosterone was 4×10^−2 μM. The integrity of the tissues was determined by calculating the permeability coefficient (Papp) of mannitol. For α-chymotrypsin studies, the enzyme was added immediately after the addition of drug and inhibitor solution to achieve a final concentration of 0.5 μM. Samples (1 mL) were taken from the serosal side at various times up to 180 min and replaced with fresh transport medium. Aliquots of 10 μL were taken from the mucosal side at the beginning and end of the experiment and analyzed by a HPLC method discussed later. […] The radioactive samples were analyzed by using a liquid scintillation counter.
as §6

[10] = test system: rat GIT segments; conditions: cited from earlier work; for Papp × 10^7 cm/sec of insulin: Rat, Everted gut sac
[11] = in vivo; cited from earlier work
[12] = cited from earlier work
[13] = test system: rat GIT segments; conditions: cited from earlier work; for Papp × 10^7 cm/sec of insulin: Rat, Ussing technique
[14] = chymotrypsin 0.1 μM, enzyme:inhibitor 1:1

O=C(O)CN(CCN(CC(=O)O)CC(=O)O)CC(=O)O [EDTA]
% I60 min (insulin remaining at 60 minutes) ([1]; chymotrypsin + 0.5 mM EDTA, no inhibitor): 0.32 ± 0.33%

C[C@H](CCC(=O)NCC(=O)[O-])[C@H]1CC[C@H]2[C@@H]3[C@H](O)C[C@@H]4C[C@H](O)CC[C@]4(C)[C@H]3C[C@H](O)[C@]12C.[Na+] [NaGC, sodium glycocholate]
% I60 min (insulin remaining at 60 minutes) ([1]; chymotrypsin + 30 mM NaGC, no inhibitor): 4.66 ± 0.8%

OC[C@@H](O)[C@@H](O)[C@H](O)[C@H](O)CO [^14C Mannitol, D-[1-^14C] mannitol]
Papp at 180 min [2]: 3.46 ± 0.251 ×10⁻⁶ cm/s | ^14C Mannitol Permeability × 10^6 cm/sec [3]: 3.465 ± 0.251 × 10^6 cm/sec | ^14C Mannitol Ratio ([3]; male, Sprague Dawley, rat, 180 min, pH 7.4): 1.0

Aprotinin
% I60 min (insulin remaining at 60 minutes) ([4]; enzyme:inhibitor 1:1): 97.99 ± 0.08% | Amount (%) of sCT remaining at 60 min (I60) ([5]; trypsin 0.5 μM, enzyme:inhibitor 1:1): 83.36 ± 8.92% | Ratio (half-life versus trypsin alone) ([5]; trypsin:inhibitor 1:1): 199.34 | Amount (%) of sCT remaining at 60 min (I60) [6, 14]: 35.87 ± 1.06% | Ratio (half-life versus α-chymotrypsin alone) ([6]; α-chymotrypsin:inhibitor 1:1): 1.82 | % I60 min (insulin remaining at 60 minutes) [1, 14]: 69.65 ± 6.04%

insulin
% I60 min (insulin remaining at 60 minutes) ([4]; no inhibitor): 68.79 ± 1.85% | apical epithelial permeability of insulin [7]: 0.032 ×10⁻⁶ cm/s | insulin (%) remaining at the end of 3 hours [8]: negligible | cumulative amount of insulin permeated at the end of three hours ([9]; jejunum): 0.04±0.023 IU | Permeability of insulin (P × 10^7 cm/sec) ([9]; rat jejunum, insulin 100 μM + α-chymotrypsin 0.5 μM + DkOVM 0.0 μM): 0.0 × 10^7 cm/sec | Permeability of insulin (P × 10^7 cm/sec) ([9]; rat jejunum, insulin 100 μM alone): 0.922 ± 0.168 × 10^7 cm/sec | Papp of insulin ([9]; rat jejunum, insulin alone): 0.922±0.168 ×10^−7 cm/sec | Papp × 10^7 cm/sec of insulin ([10]; Duodenum): 0.78 ± 0.54 × 10^7 cm/sec | Papp × 10^7 cm/sec of insulin ([10]; Ileum): 1.54 ± 0.29 × 10^7 cm/sec | Papp × 10^7 cm/sec of insulin ([10]; Jejunum): 1.385 ± 0.265 × 10^7 cm/sec | reported Papp of insulin from rat jejunum ([10]; Schilling & Mitra 1990): 5±2 ×10^−7 cm/sec | % I60 min (insulin remaining at 60 minutes) ([1]; insulin 18 μM alone, no enzyme): 100% | insulin degraded in 60 minutes ([1]; α-chymotrypsin, control without inhibitor): more than 90% | insulin reaching the liver via the portal vein that undergoes degradation [11]: About 50% | peak time ([12]; pulmonary route): 5 to 60 min | peak time ([12]; subcutaneous route): 6 to 150 min | reported Papp of insulin from rat jejunum ([13]; Asada et al. 1995): 12.27±1.73 ×10^−7 cm/sec | Papp × 10^7 cm/sec of insulin ([13]; Colon): 4.05 ± 1.09 × 10^7 cm/sec | Papp × 10^7 cm/sec of insulin ([13]; Duodenum): 4.85 ± 0.99 × 10^7 cm/sec | Papp × 10^7 cm/sec of insulin ([13]; Jejunum): 12.27 ± 1.73 × 10^7 cm/sec
